The term stoichiometry N denotes the number of molecules, sites or subunits per partner or assembly.

The results in this text go back to article PMC10966353.

The assay deals with A/Puerto Rico/8/1934 hemagglutinin with an N-terminal sfGFP, GCN4-pII trimerization motif and Strep-tag II (influenza A virus A/Puerto Rico/8/1934). The assay is described as follows: negative stain electron microscopy.

For “A/Puerto Rico/8/1934 hemagglutinin with an N-terminal sfGFP, GCN4-pII trimerization motif and Strep-tag II”, the stoichiometry N worked out at 3.
